Results as given in PMC7749421, “Functional expression of human prostaglandin E2 receptor 4 (EP4) in E. coli and characterization of the binding property of EP4 with Gα proteins” (Biochemistry and Biophysics Reports, 2020).

Legend:
[1] = target: Gαs1 (alpha subunit of Gs protein) (UniProt P63092); assay: ELISA; Gα (10 μg/ml) immobilised in a high-binding 96-well plate, blocked with 5% skimmed milk; 5-1000 nM P9-EP4 in sarkosyl or in APG added; detected with anti-P9 antibody, HRP anti-mouse IgG and TMB; 25 °C
[2] = target: Gαi2 (alpha subunit of Gi protein) (UniProt P04899); assay: as above
[3] = target: Gαi1 (alpha subunit of Gi protein) (UniProt P63096); assay: as above
[4] = target: Gαi3 (alpha subunit of Gi protein) (UniProt P08754); assay: as above
[5] = target: T1, human prostaglandin E2 receptor 4 (EP4) (Homo sapiens, UniProt P35408); assay: biochemical
T1 construct: gene PTGER4
T1 sequence (P35408 1-354): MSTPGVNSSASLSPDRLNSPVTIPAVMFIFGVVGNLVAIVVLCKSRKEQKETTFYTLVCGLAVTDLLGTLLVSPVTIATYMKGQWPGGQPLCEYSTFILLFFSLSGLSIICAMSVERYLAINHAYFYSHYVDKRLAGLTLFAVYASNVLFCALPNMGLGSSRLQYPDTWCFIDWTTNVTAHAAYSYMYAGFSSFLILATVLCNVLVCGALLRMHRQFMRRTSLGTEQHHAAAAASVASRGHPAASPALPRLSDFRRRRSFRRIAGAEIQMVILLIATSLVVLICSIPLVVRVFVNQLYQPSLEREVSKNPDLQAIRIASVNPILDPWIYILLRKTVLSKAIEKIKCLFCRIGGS

Chain of P9-EP4 (human prostaglandin E2 receptor 4, amino acids 1-354, fused to the C-terminus of the P9 envelope protein of phage phi6, with a C-terminal His6 tag) (P35408 1-354 limits assumed): as the sequence (P35408 1-354) above
Chain of Gαi1 (alpha subunit of Gi protein) (P63096 whole entry): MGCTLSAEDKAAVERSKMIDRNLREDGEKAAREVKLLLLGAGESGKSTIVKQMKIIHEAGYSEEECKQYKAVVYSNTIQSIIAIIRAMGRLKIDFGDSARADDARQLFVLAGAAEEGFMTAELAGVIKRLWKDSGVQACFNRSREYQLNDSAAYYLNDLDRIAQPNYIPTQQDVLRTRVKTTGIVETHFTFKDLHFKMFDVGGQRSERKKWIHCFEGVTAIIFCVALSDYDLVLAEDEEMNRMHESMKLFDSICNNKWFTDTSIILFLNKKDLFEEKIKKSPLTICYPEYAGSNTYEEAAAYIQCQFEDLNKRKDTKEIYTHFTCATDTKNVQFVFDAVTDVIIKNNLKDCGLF
Chain of Gαs1 (alpha subunit of Gs protein) (P63092 whole entry): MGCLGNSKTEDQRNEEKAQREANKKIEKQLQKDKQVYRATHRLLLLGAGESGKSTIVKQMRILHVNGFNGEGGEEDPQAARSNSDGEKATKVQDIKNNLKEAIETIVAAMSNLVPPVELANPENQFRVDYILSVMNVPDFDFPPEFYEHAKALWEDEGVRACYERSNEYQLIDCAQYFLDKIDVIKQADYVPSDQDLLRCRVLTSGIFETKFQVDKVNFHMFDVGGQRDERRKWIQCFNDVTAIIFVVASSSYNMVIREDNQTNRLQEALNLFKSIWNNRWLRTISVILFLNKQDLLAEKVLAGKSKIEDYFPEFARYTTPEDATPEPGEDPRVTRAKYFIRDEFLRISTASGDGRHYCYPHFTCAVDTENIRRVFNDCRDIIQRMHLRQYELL
Chain of Gαi3 (alpha subunit of Gi protein) (P08754 whole entry): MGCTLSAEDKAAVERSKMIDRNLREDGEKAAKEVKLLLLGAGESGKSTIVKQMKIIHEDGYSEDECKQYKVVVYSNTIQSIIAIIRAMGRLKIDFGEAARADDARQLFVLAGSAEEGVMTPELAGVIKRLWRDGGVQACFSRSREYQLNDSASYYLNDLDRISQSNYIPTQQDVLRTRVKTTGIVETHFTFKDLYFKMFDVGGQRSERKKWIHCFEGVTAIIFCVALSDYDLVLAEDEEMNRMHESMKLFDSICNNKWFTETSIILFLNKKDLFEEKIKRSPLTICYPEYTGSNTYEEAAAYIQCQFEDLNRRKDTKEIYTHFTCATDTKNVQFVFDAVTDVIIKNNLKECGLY
Chain of Gαi2 (alpha subunit of Gi protein) (P04899 whole entry): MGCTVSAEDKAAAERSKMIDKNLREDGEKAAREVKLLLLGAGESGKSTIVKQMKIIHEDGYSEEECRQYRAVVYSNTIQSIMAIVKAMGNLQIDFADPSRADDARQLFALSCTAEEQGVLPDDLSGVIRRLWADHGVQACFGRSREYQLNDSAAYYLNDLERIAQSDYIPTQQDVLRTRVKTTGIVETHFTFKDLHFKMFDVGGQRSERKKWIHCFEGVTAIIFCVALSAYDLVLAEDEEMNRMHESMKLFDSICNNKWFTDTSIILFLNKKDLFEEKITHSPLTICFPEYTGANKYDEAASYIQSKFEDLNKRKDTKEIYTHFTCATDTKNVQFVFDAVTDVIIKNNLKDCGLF

Molecule	Kd [1]	Kd [2]	Kd [3]	Kd [4]	Kd [5]
P9-EP4 (human prostaglandin E2 receptor 4, amino acids 1-354, fused to the C-terminus of the P9 envelope protein of phage phi6, with a C-terminal His6 tag) (from UniProt P35408 1-354)	88 nM	175 nM	50 nM	214 nM	–
CC(C(=O)Nc1cc(C#N)ccc1CCCC(=O)O)c1ccc(F)c2ccccc12 (centres unmarked) [ONO-AE3-208]	–	–	–	–	680 ± 150 nM
